According to the DeepSol protein solubility set:

Test: soluble on expression in E. coli; label from the status in PepcDB or PDB records

| Sequence | soluble on expression in E. coli |
| --- | --- |
| MLMDGHTHTELCPHGSGEATEKMIQRAIQLGFQRYCITEHAPLPPAFRDQYEGTPAGYTEASLRENQVADYLALANGLKTKYAGQIEISVGFEVDFLPEHVAWTRDFLNTYGPRTQESILSVHFMRGLRQHFWCVDMSTDDFAAGFGQWLKTPQRVFEQYYQTVLASVQADLGPYAPQRIGHMSLVRKYQDYFGLTEPLDVHNLQLVDQTLALVKQQRRQLDLNLAGLYKPYCNDFYPGEQILQRAQKLDIPLVYGSDAHDIASVGRGYHLIKKLIEGLEHHHHHH | not soluble |
| MLNIFCPHCGELRSEEEFHAKGQAHIPRPLDPNACSDEEWGDYMFFRDNPRGLHHELWVHAAGCRKYFNVTRHTVTYEILETYLIGEQPSVVADGEKKPAVQGEPA | not soluble |
| MLNNKRLFTSESVTEGHPDKIADQVSDAILDAILKDDPNARVACETTVTTGMALIAGEISTTTYVDIPKVVRETIKEIGYTRAKYGYDYETMAILTAIDEQSPDIAQGVDKALEYRDKDSEEEIEATGAGDQGLMFGYATNETETYMPLAIYLSHQLAKRLSDVRKDGTLNYLRPDGKVQVTVEYDENDNPVRIDTIVVSTQHAEDVTLEQIQEDIKAHVIYPTVPENLINEQTKFYINPTGRFVIGGPQGDAGLTGRKIIVDTYGGYARHGGGCFSGKDPTKVDRSAAYAARYVAKNIVAAGLADQCEVQLAYAIGVAEPVSIAIDTFGTGKVSEGQLVEAVRKHFDLRPAGIIKMLDLKQPIYKQTAAYGHFGRTDVLFPWEKLDKVEELKDAVK | not soluble |
| MLNSAPSETEKSETEGSETKESNLVIEDEEERKECTSVKKTEGHFTRQVDQVTKYDKDYIWSLVHSQLREGGLSQAASDLVMSYFEERYAYALEHIRFARTAEAIAEYVFNGVLSEWTKQLR | not soluble |
| MLPDKGWLVEARRVPSPHYDCRPDDEKPSLLVVHNISLPPGEFGGPWIDALFTGTIDPDAHPFFAEIAHLRVSAHCLIRRDGEIVQYVPFDKRAWHAGVSNYQGRERCNDFSIGIELEGTDTLAYTDAQYQQLAAVTRTLIASYPAIADNMTGHCNITPDRKTDPGPAFDWPRFRALVALSSHKEMT | not soluble |
| MLPERVLEILREMKRERIKGASWLAKKGAEAFLTLAEELDESLLEDAIMELREEVVKVNPSMASLYNLARFIPVTNRRDILKSRALEFLRRMEEAKRELASIGAQLIDDGDVIITHSFSSTVLEIIRTAKERKKRFKVILTESSPDYEGLHLARELEFSGIEFEVITDAQMGLFCREASIAIVGADMITKDGYVVNKAGTYLLALACHENAIPFYVAAETYKFHPTLKSGDVMLMERDLIRGNVRIRNVLFDVTPWKYVRGIITELGIVIPPRDIQ | soluble |
| MLPLPTWTLSDVDAILVLSFGGPEGQQDVIPFLENVTRGRGIPRERLEEVAVHYRHFGGISPLNALNREIIGNIIEVLSSRGLEIPVYFGNRNWHPFVNDTAEKMVRDGVRNVAVFATSAWGGYSGCRQYDEDIVRMNHHLEEKELPTLNCLKLRQFFDHPLFIEEMSSVVFQAARELGISALDELQLHQKVVFTAHSIPEVANENSGRKEDGPLYSRQVYEAASLVAKHLGISQERYDVVWQSASGNGQIPWLEPDILDYAKCQHDEGVSELVVAPIGFISDHMEVVWDLDHELQDLASDLGMSISRAATVGHTDSFATMIVELVEESLGVKPHQNLGTVPSKGCSFNGEPCEVNCCKPVQRPHSAKA | not soluble |
| MLPNVAVEFDENSIFRSLGKGNLTFREAFEEIIKFIEADTNSSYRISIGTDSHVGNGTLFVTCIHVHRIGKGAIGFLHKSLMSRPIRNLREKIYMETCMSLQLAYLFDEEKIDRIYKALGKNGKSPTKGVTFEFHIDIGKRGETKALINEMVGMVSGLNFIPKIKPDSYCASCFADRYTKAI | soluble |
| MLPRTMAADEGHVPGRFDAVIVGGGHNGLVAAAYLARAGRSVLVLERLGNTGGAAVSTRPFAGVDARLSRYSYLVSLLPRKIVRDLGLDFRVRGRTVSSYTPAERHGRPTGLLVGGGERRTREAFGRLTGSAREYESWQRFYGMTGRVARQVFPTLTEPLPSRDELRRRVDDEDAWRVLFEEPIGAAIEENFTDDLVRGVVLTDALIGTFADAHDPSLRQNRCFLYHIIGGGTGAWDVPVGGMGALTDALAAAARDAGAVLATGHEAVRIETDGRSAEVTYRDADGEGTVSARHVLVNAAPQELARLTGDSPPVPAEGAQLKVNMLLKRLPALRDTAVDPREAFAGTFHIAEGYEQLAAAHAQAAAGSLPEAPPSEIYCHSLTDPTILGPDLVEQGYQTLTLFGLHTPARLFERDNEGVREELLKSTLAQLDAHLAEPLVDCLATDAEGRPCIEAKSPLDLERDLRLPGGNIFHRDLAFPYAQEGTGRWGVETAHANVLLCGAGAVRGGGVSGVPGHNAAMAALEDVGERALGLEHHHHHH | not soluble |
| MLPTTSSLQIGELAAGQALTLPIYHFKPSGKHSGPKVYIQANVHGAEVQGNAVIYQLMKQLERCDILGEITLVPLANPLGINQKSGEFTLGRFDPITGVNWNREYLNHAIDLPTWYKEHAELSDSELIQAYRSTLVEACQRRLRNDWGVTTGHRLAVNLQAMAHEADIVLDLHTGPKSCKHLYCPEYDIASAQFFAIPYTLVIPNSFGGAMDEAAFCPWWQLSEVAKVMGRDLEIAVSAFTLELASQERICLEDALVDAKGILAYLSHRGVIAEQVEPAKMRRFGCYLKDYKKYHAPMAGLVEYVAPVGEPLAAGETLVNLLRLDLYGSEQELTALSLPQDCVPILHFASASVHQGTELYKVMTNLFELPH | soluble |
| MLPVQILKDNAQEERGESARLSSFVGAIAIGDLVKSTLGPKGMDKILISGNPESAGGIKVTNDGATILKSIGVDNPAAKVLVDMSMTQDHEVGDGTTSVTVLAAELLKEAEKLVNQRIHPQTIISGYRRALGIAQESLKKSSIESGDNIRDDLLKIARTTLGSKILSQHKEHFAQLAVDAVLRLKGSGNLDAIQIIKKLGGSMNESYLDEGFLLEKLPGMFQPRRVEKAKILIANTPMDTDKVKVFGSRVRVDGVAKVAELEAAEKLKMKEKVDKILAHNCNVFINRQLIYNYPEQLFADAKVMAIEHADFEGIERLALVLGGEIVSTFDSPQTAQFGSCDLIEEIMIGEDRLLRFSGVKLGEACSVVLRGATQQILDESERSLHDALCVLVTHVKESKTVAGAGASEILMSSAIAVEAQKVAGKEALAVEAFGRALAQLPTIICDNAGLDSAELVTRLRAEHANGRHNMGIDIEKGEVADVTKLGVIESYNVKLCMVSSAAEATEQILRVDDIIKAAPRARAQDNRPC | not soluble |
| MLQHYSVSWKKGLAALCLLAVAGLSGCDQQENAAAKVEYDGLSNSQPLRVDANNHTVTMLVQINGRFLTDDTRHGIVFKDGSNGHKSLFMGYATPKAFYEALKEAGGTPGENMTMDNKETTHVTGSKLDISVNWQGAAKAYSFDEVIVDSNGKKLDMRFGGNLTAAEEKKTGCLVCLDSCPVGIVSNATYTYGAVEKRGEVKFKGNASVLPADNTLATVTFKIAE | soluble |
| MLQPILSISGKSGLFRLVSRGKNTLIVEALDTKRRTPTYPSDRVVSLGDISIYTIEDDVPLPEVMETIYRKNEGKQLDAPALTKDNDSLRAFFGEVLPEYDVDRVYPSDIRKIISWYNLLVDNGFTTFLSDKKPAEEETTEKE | not soluble |
| MLRNGRLFGHRVETGFPDLPILEVSLRTGVRVRDMDNLKRKQVMSQKEKYKRAVKGDIAYNMMRMWQGAVGPVPEDGLVSPAYVVVKPYAEANSTYFSYLFRTAAYMQEVNKFSRGIVADRNRLYWESFKQMPSLVPPRPEQDQIVTYLRTQDAHIACFIRAKRDLIALLTEQKLRIIDHAVTRGLDASVKLKPSDIEWLGEVPAHWEVKRLKFLAGNITSQTTTKADDEIYLALEHVQSWTGVARPLGGEVEFASTVKRFVADDVLFGKLRPYLAKVTRVVCAGVCVSEFLVLRSRQELILPAYLEQLLRCKRVIDLISSSTAGAKMPRADWNFIGNVRLPIPRKDEQEAILSHIGRETKDLDETIARAEDEIKLIREYRDRLIADAVTGQVDLRGWQPGPDDVVSDDDLAALGDDDAGSSDDEEADA | not soluble |
